Data set [1] is described as follows: western blot of total lysates, HEK293T. The following applies: glycan lost; control: wild type SPPL2c-myc.
The nature of data set [2]: cell-based cleavage assay, western blot. The following applies: glycan lost.
Data set [3] can be described thus: immunofluorescence of HO-1 ICD nuclear translocation, HeLa. The following applies: glycan lost; control: wild type SPPL2c-myc.

B1: SPPL2c isoform A: N106A (protein)
parent chain: MACLGSLHPLGSLLLLFLLLLLSPEARGEYGLVRVVSKNWSKDYCVLYSSDYVNLPRDLHHAPLLSLHDGTKTPWCPDEDSFHQAQDSSPRQRPLHQTTTMVTRGNCSFYAKGWLAQDQGAQGLLIVSRARNQQCSDTISKPQDPSKPWPALTIPVAVLRYTDMLDIVSHTYGDTDVRVAMFAPLEPVTDYNMAIIFILAVGTVAAGGYWAGLMEANKLQRRQAQRGGGLGGHNQQQTVAAERSQRAWEDDDFEDAPMDFTPAMTGAVVTMSCSIMILLYFFYDCFVYVMIGIFSLGASTGLYSCLAPILCHLPLWRYQWVLPGQRVSVTWPLLLLAGLCAMVTVLWVIHRNEDHWAWLLQDTLGVAYCLFVLRRVRLPTFKNCTLFLLALLAFDVFFVFITPLFTKTGESIMVEVASGPADSSSHERLPMVLKVPRLSFSALTLCNQPFSILGFGDIVVPGFLVAYCHRFDMQVQSRQVYYMACTVAYAVGLLVTFVAMILMQMGQPALLYLVSSTLLTSLAVATCRQEFTLFWTGQGRAKIPAEPVAQPCIASAVGSKMKLEDAKDSRTTNRFEQAVDGESGDLESSTGDDMAEMVTLSEDEATSPEGHSESSEGWSDTNLDPNELPSGSPMALEAMLIPLIQPIPHPSELGHIRTQSRVHDSSLPWMGLHKRKGLKVKKSMSAQAPL
B1: the expression_or_secretion entry in data set [1] is “decreases”. The enzymatic_activity entry in data set [2] (control: wild type SPPL2c-myc) and in data set [3] was “abolishes” each time.

B2: SPP: N10/20A (protein)
parent chain: MDSAVSDPHNGSAEAGTPANGTTRPPSTPEGIALAYGSLLLMALLPIFFGALRSVRCARGKSSSDMPETITSRDAARFPIIASCTLLGLYLFFKIFSQEYINLLLSMYFFVLGILALSHTISPFMNKFFPANFPNRQYQLLFTQGSGENKEEIINYEFDTKDLVCLGLSSVVGVWYLLRKHWIANNLFGLAFSLNGVELLHLNNVSTGCILLGGLFIYDIFWVFGTNVMVTVAKSFEAPIKLVFPQDLLEKGLEADNFAMLGLGDIVIPGIFIALLLRFDISLKKNTHTYFYTSFAAYIFGLGLTIFIMHIFKHAQPALLYLVPACIGFPVLVALAKGEVAEMFSYEESNPKDPAAETESKEESTEASASKRLEKKEK
Take B2: in data set [2] (control: wild type SPP-myc), the enzymatic_activity result is listed as “no change”.

The record behind these values is publication PMC11513070.
